Reference: article PMC5435912
pKd: −log10 of the molar value.

Tests used:
[1] = biological target: CdiI^Ykris-His6, immunity protein of Yersinia kristensenii ATCC 33638 (Yersinia kristensenii ATCC 33638); experiment: BLI
[2] = biological target: bovine pancreatic RNase A, biotinylated (bovine) (UniProt P61823); experiment: BLI
Sequence of UniProt P61823 (P61823 27-150): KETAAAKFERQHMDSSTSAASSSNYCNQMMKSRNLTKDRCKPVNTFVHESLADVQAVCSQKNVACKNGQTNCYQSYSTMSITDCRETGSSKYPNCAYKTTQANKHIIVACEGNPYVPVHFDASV

Substance	pKd [1]	pKd [2]
CdiA-CT^Ykris, C-terminal toxin region of CdiA from Yersinia kristensenii ATCC 33638 (domain or fragment)	7.39	
CdiI^Ykris-His6, immunity protein of Yersinia kristensenii ATCC 33638 (natural protein)		5.71
